Results: patent US20240254182A1 (PROVINCIAL HEALTH SERVICES AUTHORITY, published 2024)

Legend:
[1] = biological target: T1, design 34 G-CSFR(Ig-CRH)E, tag cleaved (human, UniProt Q99062 26-331); experiment: SPR, WT G-CSF against design 34 G-CSFR(Ig-CRH)E; steady state derived affinity constant
T1 construct: also called Design 34 G-CSFR(Ig-CRH)E mutant
T1 chain: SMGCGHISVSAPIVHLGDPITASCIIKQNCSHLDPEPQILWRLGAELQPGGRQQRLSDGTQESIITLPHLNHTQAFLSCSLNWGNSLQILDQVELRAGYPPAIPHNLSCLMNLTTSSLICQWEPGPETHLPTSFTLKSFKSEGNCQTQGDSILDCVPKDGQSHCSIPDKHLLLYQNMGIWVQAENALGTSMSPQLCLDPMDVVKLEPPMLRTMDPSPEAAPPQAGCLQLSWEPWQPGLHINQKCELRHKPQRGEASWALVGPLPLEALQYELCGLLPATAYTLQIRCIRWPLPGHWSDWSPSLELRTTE

[2] = biological target: T2, design 35 G-CSFR(Ig-CRH)E, tag cleaved (human, UniProt Q99062 26-331); experiment: SPR, WT G-CSF against design 35 G-CSFR(Ig-CRH)E, single-cycle kinetics
T2 chain: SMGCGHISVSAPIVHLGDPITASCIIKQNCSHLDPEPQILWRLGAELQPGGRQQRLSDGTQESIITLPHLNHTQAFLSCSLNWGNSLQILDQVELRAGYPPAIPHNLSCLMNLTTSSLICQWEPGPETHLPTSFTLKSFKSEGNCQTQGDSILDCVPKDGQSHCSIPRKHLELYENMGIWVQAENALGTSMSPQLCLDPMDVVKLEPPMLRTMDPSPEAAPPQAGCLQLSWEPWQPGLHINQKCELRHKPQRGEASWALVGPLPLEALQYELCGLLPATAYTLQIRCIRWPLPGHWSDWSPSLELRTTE

[3] = biological target: T3, design 30 G-CSFR(Ig-CRH)E, tag cleaved (human, UniProt Q99062 26-331); experiment: SPR, WT G-CSF against design 30 G-CSFR(Ig-CRH)E, single-cycle kinetics
T3 construct: also called Design 30 G-CSFR(Ig-CRH)E mutant
T3 chain: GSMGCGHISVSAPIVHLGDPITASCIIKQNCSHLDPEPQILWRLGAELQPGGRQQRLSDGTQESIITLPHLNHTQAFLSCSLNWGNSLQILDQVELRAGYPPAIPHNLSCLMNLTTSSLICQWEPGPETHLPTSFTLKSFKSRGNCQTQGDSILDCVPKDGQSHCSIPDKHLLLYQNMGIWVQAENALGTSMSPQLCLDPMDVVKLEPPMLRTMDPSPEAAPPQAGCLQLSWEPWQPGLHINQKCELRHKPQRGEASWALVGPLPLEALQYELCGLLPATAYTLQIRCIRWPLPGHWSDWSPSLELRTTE

[4] = biological target: T3, design 30 G-CSFR(Ig-CRH)E, tag cleaved; experiment: SPR, G-CSFRE amine-coupled, G-CSFE injected, single-cycle kinetics
Procedure: (§1) The SPR binding assays were carried out on a Biacore T200 instrument (GE Healthcare, Mississauga, ON, Canada) with PBS-T (PBS+0.05% (v/v) Tween 20) running buffer at a temperature of 25° C. CM5 Series S sensor chip, Biacore amine coupling kit (NHS, EDC and 1 M ethanolamine), and 10 mM sodium acetate buffers were all purchased from GE Healthcare. PBS running buffer with 0.05% Tween20 (PBS-T) was purchased from Teknova Inc. (Hollister, CA). Designs were assessed in three different immobilization orientations.
(§2) To determine binding affinity of G-CSFE to G-CSFRE the G-CSFRE mutant was captured by standard amine coupling as described by the manufacturer (GE LifeSciences). Briefly, immediately after EDC/NHS activation, a 5 μg/mL solution of G-CSFRE in 10 mM NaOAc, pH 5.0, was injected at a flow rate of 5 μL/min until a receptor density of ˜700-900 RU was reached. The remaining active groups were quenched by a 420 s injection of 1 M ethanolamine hydrochloride-NaOH pH 8.5 at 10 μL/min. Using single-cycle kinetics, six concentrations of a two-fold dilution series of the corresponding G-CSFE mutant starting at 200 nM with a blank buffer control were sequentially injected at 25 μL/min for 300 s with a 1800 s dissociation phase, resulting in a set of sensorgrams with a buffer blank reference. The same sample titration was also performed on a reference cell with no variants captured. The chip was regenerated to prepare for the next injection cycle by one pulse of 10 mM glycine/HCl, pH 2.0, for 30 s at 30 μL/min.
(§3) Double-referenced sensorgrams from duplicate or triplicate repeat injections were analyzed using Biacore™ T200 Evaluation Software v3.0 and fit to the 1:1 Langmuir binding model.

[5] = biological target: T4, WT G-CSFR(Ig-CRH), purified, tag cleaved (human, UniProt Q99062 26-331); experiment: SPR, WT G-CSFR(Ig-CRH) amine-coupled, G-CSFE injected, single-cycle kinetics
T4 construct: also called G-CSFRWT; wild type G-CSFR(Ig-CRH)
T4 chain: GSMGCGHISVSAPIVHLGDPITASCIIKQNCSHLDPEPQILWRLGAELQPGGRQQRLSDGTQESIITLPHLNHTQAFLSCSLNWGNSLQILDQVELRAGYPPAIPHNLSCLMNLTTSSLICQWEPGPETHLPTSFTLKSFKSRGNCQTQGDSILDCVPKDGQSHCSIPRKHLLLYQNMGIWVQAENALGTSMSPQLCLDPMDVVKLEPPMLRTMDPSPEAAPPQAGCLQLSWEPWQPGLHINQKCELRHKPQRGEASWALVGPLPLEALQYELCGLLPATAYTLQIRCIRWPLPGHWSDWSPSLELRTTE
Procedure: as §1
(§4) To assess binding affinity of G-CSFE to G-CSFRWT, recombinant G-CSFRWT purified as described in Example 5 was captured as described above in this Example. Using single-cycle kinetics, six concentrations of a two-fold dilution series of each G-CSFE mutant starting at […] with a blank buffer control were sequentially injected as described above. The same sample titration was also performed on a reference cell with no variants captured. The G-CSFRWT surface was regenerated as described above.

[6] = biological target: T1, design 34 G-CSFR(Ig-CRH)E, tag cleaved; experiment: SPR, G-CSFRE amine-coupled, G-CSFE injected, single-cycle kinetics
Procedure: as §1, §2, §3

[7] = biological target: T2, design 35 G-CSFR(Ig-CRH)E, tag cleaved; experiment: as above
Procedure: as §1, §2, §3

[8] = biological target: T4, WT G-CSFR(Ig-CRH), purified, tag cleaved; experiment: SPR, single-cycle kinetics, G-CSFR(Ig-CRH) on the chip, G-CSF injected
Procedure: as §1, §4, §3

[9] = biological target: T5, design 134 G-CSFR(Ig-CRH)E, tag cleaved (human, UniProt Q99062 26-331); experiment: SPR, G-CSFRE amine-coupled, G-CSFE injected, single-cycle kinetics
T5 construct: also called design 137 G-CSFR(Ig-CRH)E
T5 chain: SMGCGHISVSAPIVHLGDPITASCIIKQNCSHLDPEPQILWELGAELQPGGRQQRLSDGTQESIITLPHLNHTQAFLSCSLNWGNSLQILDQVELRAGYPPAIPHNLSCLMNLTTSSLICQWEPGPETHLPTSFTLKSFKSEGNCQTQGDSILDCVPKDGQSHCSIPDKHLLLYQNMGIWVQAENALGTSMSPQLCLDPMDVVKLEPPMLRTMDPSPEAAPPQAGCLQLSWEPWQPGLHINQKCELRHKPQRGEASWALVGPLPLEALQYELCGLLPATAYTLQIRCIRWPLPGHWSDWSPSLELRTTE
Procedure: as §1, §2, §3

[10] = biological target: T6, design 130 G-CSFR(Ig-CRH)E, tag cleaved (human, UniProt Q99062 26-331); experiment: as above
T6 construct: also called 130 ECD (Ig-CRH)
T6 chain: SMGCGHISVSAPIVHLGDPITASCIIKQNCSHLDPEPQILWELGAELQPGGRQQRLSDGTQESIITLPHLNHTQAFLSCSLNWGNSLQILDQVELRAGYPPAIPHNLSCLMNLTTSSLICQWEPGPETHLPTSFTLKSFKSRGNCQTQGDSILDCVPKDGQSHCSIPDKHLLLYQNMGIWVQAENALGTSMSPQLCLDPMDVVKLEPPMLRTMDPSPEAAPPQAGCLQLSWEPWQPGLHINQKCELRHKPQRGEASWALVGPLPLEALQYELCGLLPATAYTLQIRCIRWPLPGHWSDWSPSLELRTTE
Procedure: as §1, §2, §3

[11] = biological target: T4, WT G-CSFR(Ig-CRH), purified, tag cleaved; experiment: SPR (Biacore T200), WT receptor amine-coupled, cytokine injected
Procedure: as §1, §4, §3

[12] = biological target: T7, design 307 G-CSFR(Ig-CRH)E, tag cleaved (human, UniProt Q99062 26-331); experiment: SPR, G-CSFRE amine-coupled, G-CSFE injected; steady state derived affinity constant
T7 chain: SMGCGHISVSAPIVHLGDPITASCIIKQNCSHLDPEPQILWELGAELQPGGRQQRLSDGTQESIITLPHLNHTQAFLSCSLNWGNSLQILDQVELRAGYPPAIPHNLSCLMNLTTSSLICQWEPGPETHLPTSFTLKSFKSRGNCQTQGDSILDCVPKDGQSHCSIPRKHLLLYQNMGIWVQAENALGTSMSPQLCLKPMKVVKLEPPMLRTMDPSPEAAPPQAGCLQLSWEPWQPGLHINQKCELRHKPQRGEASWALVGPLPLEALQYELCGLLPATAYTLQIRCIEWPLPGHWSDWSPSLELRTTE
Procedure: as §2, §3
Kinetic-derived affinity constants (KD) where obtained by fitting the association and dissociation phases of the curves. The KD of WT G-CSF for WT G-CSFR(Ig-CRH) ranged between 1.8-2.5E-9. For the cases in which the kinetic parameters could not be fit an attempt was made to derive a steady state affinity constant. In those cases, the KD fold change was calculated from the steady state derived KD for the WT G-CSF:WT G-CSFR(Ig-CRH) pair and is indicated in Table 7.

B1: WT G-CSF, purified from insect cells, tag cleaved (ligand)
chain: TPLGPASSLPQSFLLKCLEQVRKIQGDGAALQEKLCATYKLCHPEELVLLGHSLGIPWAPLSSCPSQALQLAGCLSQLHSGLFLYQGLLQALEGISPELGPTLDTLQLDVADFATTIWQQMEELGMAPALQPTQGAMPAFASAFQRRAGGVLVASHLQSFLEVSYRVLRHLAQAAAENLYFQ
notes: protein of the SPR; also called G-CSFWT; wild type G-CSF
[1]
  KD fold change (against WT:WT): 4260 fold
[2]
  KD fold change (against WT:WT): 19 fold
[3]
  KD fold change (against WT:WT): 774 fold

B2: design 30 G-CSFE, tag cleaved (ligand)
chain: TPLGPASSLPQSFLLKCLEQVRKIQGDGAALQEKLCATYKLCHPEELVLLGHSLGIPWAPLSSCPSQALQLAGCLSQLHSGLFLYQGLLQALEGISPELGPTLDTLQKDVARFATTIWQQMEELGMAPALQPTQGAMPAFASAFQRRAGGVLVASHLQSFLEVSYRVLRHLAQAAAENLYFQ
notes: also called design 30 G-CSFE mutant
[4]
  KD fold change (against WT:WT): 11 fold
[5]
  KD fold change (against WT:WT): 20 fold

B3: design 34 G-CSFE, tag cleaved (ligand)
chain: TPLGPASSLPQSFLLKCLEQVRKIQGDGAALQEKLCATYKLCHPEELVLLGHSLGIPWAPLSSCPSQALQLAGCLSQLHSGLFLYQGLLQALEGISPELGPTLDTLQKDVARFATTIWQQMRRLGMAPALQPTQGAMPAFASAFQRRAGGVLVASHLQSFLEVSYRVLRHLAQAAAENLYFQ
notes: also called design 34 G-CSFE mutant
[6]
  KD fold change (against WT:WT): 5 fold
[5]
  KD fold change (against WT:WT): 33 fold

B4: design 35 G-CSFE, tag cleaved (ligand)
chain: TPLGPASSLPQSFLLKCLEQVRKIQGDGAALQEKLCATYKLCHPEELVLLGHSLGIPWAPLSSCPSQALQLAGCLSQLHSGLFLYQGLLQALEGISPELGPTLDTLQLDVADFAKTIWQQMRRLGMAPALQPTQGAMPAFASAFQRRAGGVLVASHLQSFLEVSYRVLRHLAQAAAENLYFQ
notes: also called design 35 G-CSFE mutant
[7]
  KD fold change (against WT:WT): 3.3 fold
[5]
  KD fold change (against WT:WT): 5 fold

B5: design 130 G-CSFE, tag cleaved (ligand)
chain: TPLGPASSLPQSFLLKCLEQVRKIQGDGAALQEKLCATYKLCHPERLVLLGHSLGIPWAPLSSCPSQALQLAGCLSQLHSGLFLYQGLLQALEGISPELGPTLDTLQKDVARFATTIWQQMEELGMAPALQPTQGAMPAFASAFQRRAGGVLVASHLQSFLEVSYRVLRHLAQAAAENLYFQ
notes: also called design 137 G-CSFE; G-CSF137
[8]
  binding result: no binding
[9]
  KD fold change (against WT:WT): 0.3 fold
[10]
  KD fold change (against WT:WT): 0.9 fold

B6: design 307 G-CSFE, tag cleaved (ligand)
chain: TPLGPASSLPQEFLLDCLKQVRKIQGDGAALQEKLCATYKLCHPERLVLLGHSLGIPWAPLSSCPSQALQLAGCLSQLHSGLFLYQGLLQALEGISPELGPTLDTLQLDVADFATTIWQQMEELGMAPALQPTQGAMPAFASAFQRRAGGVLVASHLQSFLEVSYRVLRHLAQAAAENLYFQ
[11]
  binding result: no binding
[12]
  KD fold change (against WT:WT): 0.6 fold
